# Experimental data as given in patent US20100021477A1 (Janssen / Centocor, published 2010).
# How the values were obtained:
# [1] = target: T1, Hen-Egg White Lysozyme (HEL) (hen, UniProt P00698 19-147); test: BIAcore
# [2] = target: T2, Bovine Serum Albumin (BSA) (bovine, UniProt P02769 25-607); test: BIAcore, BSA on the chip (40 RU), purified Fab
# [3] = target: T2, Bovine Serum Albumin (BSA); test: BIAcore, BSA on the chip (40 RU), purified Fab; apparent KD
# [4] = target: T1, Hen-Egg White Lysozyme (HEL); test: BIAcore, lysozyme on the chip (10 RU), purified Fab
# [5] = target: T1, Hen-Egg White Lysozyme (HEL); test: BIAcore, lysozyme on the chip (10 RU), purified Fab; apparent KD
# [6] = target: T2, Bovine Serum Albumin (BSA); test: BIAcore
# [7] = target: T2, Bovine Serum Albumin (BSA); test: BIAcore, BSA on the chip (40 RU)
# T2 sequence (P02769 25-607 limits assumed): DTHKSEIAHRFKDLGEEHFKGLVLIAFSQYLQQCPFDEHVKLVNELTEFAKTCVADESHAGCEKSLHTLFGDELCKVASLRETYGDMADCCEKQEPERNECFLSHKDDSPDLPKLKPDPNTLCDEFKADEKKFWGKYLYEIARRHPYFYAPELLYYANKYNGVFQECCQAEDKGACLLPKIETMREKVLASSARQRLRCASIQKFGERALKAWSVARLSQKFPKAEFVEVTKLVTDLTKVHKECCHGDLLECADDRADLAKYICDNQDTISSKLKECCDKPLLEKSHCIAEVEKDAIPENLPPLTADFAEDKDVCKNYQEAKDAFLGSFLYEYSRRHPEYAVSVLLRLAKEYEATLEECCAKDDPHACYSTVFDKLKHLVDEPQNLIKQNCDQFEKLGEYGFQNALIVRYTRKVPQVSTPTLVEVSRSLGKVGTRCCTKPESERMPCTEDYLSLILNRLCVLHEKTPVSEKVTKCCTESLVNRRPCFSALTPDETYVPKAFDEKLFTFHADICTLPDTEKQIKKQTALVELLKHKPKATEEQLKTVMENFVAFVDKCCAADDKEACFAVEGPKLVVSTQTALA
# T1 sequence (P00698 19-147 limits assumed): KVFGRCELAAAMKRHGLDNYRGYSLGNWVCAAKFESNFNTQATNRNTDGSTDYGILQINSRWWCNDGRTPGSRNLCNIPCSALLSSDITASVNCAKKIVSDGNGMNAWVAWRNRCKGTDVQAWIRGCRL
binder,measurement,setting,value
"Fab D6 (Fab, V domains shown, also called D6 (Hc/Lc)) VH: QVQLVQSGAEVKKPGSSVKVSCKASGGTFSSYAISWVRQAPGQGLEWMGGIIPIFGTANYAQKFQGRVTITADESTSTAYMELSSLRSEDTAVYYCARGIIGINLVVLDYWGQGTLVTVSS VL: not shown",binding result,[1],no binding
same,koff,[2],0.00195 s⁻¹
same,kon,[2],572000 M⁻¹ s⁻¹
same,Kd,[3],4 nM
"Fab F6 (Fab, V domains shown, also called F6 (Hc/Lc)) VH: QVQLVQSGAEVKKPGSSVKVSCKASGGTFSSYAISWVRQAPGQGLEWMGGIIPIFGTANYAQKFQGRVTITADESTSTAYMELSSLRSEDTAVYYCARGIIGTITYVFDYWGQGTLVTVSS VL: not shown",binding result,[1],no binding
same,koff,[2],0.0113 s⁻¹
same,kon,[2],430000 M⁻¹ s⁻¹
same,Kd,[3],26 nM
"Fab C2 (Fab, V domains shown, also called C2 (Hc/Lc)) VH: QVQLVQSGAEVKKPGSSVKVSCKASGGTFSSYAISWVRQAPGQGLEWMGGIIPINGNANYAQKFQGRVTITADESTSTAYMELSSLRSEDTAVYYCARRAGMRVQTYYFFDYWGQGTLVTVSS VL: not shown",binding result,[1],no binding
same,koff,[2],0.00169 s⁻¹
same,kon,[2],60000 M⁻¹ s⁻¹
same,Kd,[3],28 nM
"Fab E7 (Fab, V domains shown, also called E7 (Hc/Lc)) VH: QVQLVQSGAEVKKPGSSVKVSCKASGGTFSSYAISWVRQAPGQGLEWMGGIIPIFGTANYAQKFQGRVTITADESTSTAYMELSSLRSEDTAVYYCAREGGEVYDWEYYLDYWGQGTLVTVSS VL: not shown",koff,[4],0.12 s⁻¹
same,kon,[4],460000 M⁻¹ s⁻¹
same,Kd,[5],260 nM
same,binding result,[6],no binding
"Fab E5 (Fab, V domains shown, also called E5 (Hc/Lc)) VH: QVQLVQSGAEVKKPGSSVKVSCKASGGTFSSYAISWVRQAPGQGLEWMGWIIPYNGNANYAQKFQGRVTITADESTSTAYMELSSLRSEDTAVYYCARHTPVRDLDYWGQGTLVTVSS VL: not shown",koff,[4],0.00233 s⁻¹
same,kon,[4],227000 M⁻¹ s⁻¹
same,Kd,[5],10 nM
same,binding result,[6],no binding
"Fab D11 (Fab, V domains shown, also called D11(Hc/Lc)) VH: QVQLVQSGAEVKKPGSSVKVSCKASGGTFSSYAISWVRQAPGQGLEWMGGIIPIFGTANYAQKFQGRVTITADESTSTAYMELSSLRSEDTAVYYCARIRWGGWFRGYLDYWGQGTLVTVSS VL: not shown",binding result,[1],no binding
"Fab C6 (Fab, V domains shown, also called C6 (Hc/Lc)) VH: QVQLVQSGAEVKKPGSSVKVSCKASGGTFSSYGISWVRQAPGQGLEWMGGIIPIFGTANYAQKFQGRVTITADESTSTAYMELSSLRSEDTAVYYCARLCVSPAWDQCFDYWGQGTLVTVSS VL: not shown",binding result,[1],no binding
same,binding result,[7],no binding
"Fab F4 (Fab, V domains shown, also called F4 (Hc/Lc)) VH: QVQLVQSGAEVKKPGSSVKVSCKASGGTFSSYGISWVRQAPGQGLEWMGGIIPIFGTANYAQKFQGRVTITADESTSTAYMELSSLRSEDTAVYYCARDFGVYTWLGQTFDYWGQGTLVTVSS VL: not shown",binding result,[1],no binding
same,koff,[2],0.00048 s⁻¹
same,kon,[2],51000 M⁻¹ s⁻¹
same,Kd,[3],9 nM
